In this data set the target is T1, LL37 (human cathelicidin peptide LL-37) (Homo sapiens, UniProt P49913 P49913:134-170).
T1 chain: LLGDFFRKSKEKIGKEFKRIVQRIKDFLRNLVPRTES
The experiment in a line: SPR; biotinylated aptamer immobilised, increasing LL37 added; nonsense DNA on reference channel. Particulars: label: biotin (immobilised on neutravidin SPR chip). As for the experimental part: Aptamers were immobilized to the test channel of a neutravidin-coated SPR chip via standard biotin modification. A nonsense DNA was immobilized on the reference channel to identically match the electrostatic conditions of each channel, and then increasing concentrations of target protein LL37 were added such that no regeneration steps are required. The differential response to each dose was extracted and fit to a binding isotherm model to accurately determine Kd.
(Surface plasmon resonance follows binding to a sensor surface in real time, without labels.)

On to ACTGGGTCTCACCATCGAAAATCGAAATGACTAAAAGGCC (ssDNA) [SEQ7 (Apta#222)], for which the affinity, expressed as Kd, was 118 nM.
